Data taken from patent publication EP2344531B1.

Tests used:
[1] = target: VEGF (vascular endothelial growth factor) (UniProt P15692); assay: BioVeris ECL competition assay with a labeled competitor; negative control
[2] = target: FGF-5 (fibroblast growth factor 5) (UniProt P12034); assay: as above
[3] = target: TGFβ1 (transforming growth factor β1) (UniProt P01137); assay: BioVeris ECL competition assay with a labeled competitor; legend: ++ = IC50 about 10 - 50 µM
[4] = target: VEGF (vascular endothelial growth factor) (UniProt P15692); assay: BioVeris ECL competition assay with a labeled competitor; legend: +++ = IC50 about 2 - 10 µM

Chain of VEGF (vascular endothelial growth factor) (P15692 other isoform, or with tags, fused parts or gaps limits assumed): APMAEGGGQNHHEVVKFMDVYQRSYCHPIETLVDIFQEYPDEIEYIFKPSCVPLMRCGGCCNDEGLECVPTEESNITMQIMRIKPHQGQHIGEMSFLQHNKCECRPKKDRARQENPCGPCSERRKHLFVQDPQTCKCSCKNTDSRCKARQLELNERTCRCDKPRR
Chain of TGFβ1 (transforming growth factor β1) (P01137 279-390 limits assumed): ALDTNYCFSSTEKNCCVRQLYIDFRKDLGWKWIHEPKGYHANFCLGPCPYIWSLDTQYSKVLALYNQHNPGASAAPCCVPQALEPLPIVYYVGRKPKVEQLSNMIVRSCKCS
Chain of FGF-5 (fibroblast growth factor 5) (P12034 18-268 limits assumed): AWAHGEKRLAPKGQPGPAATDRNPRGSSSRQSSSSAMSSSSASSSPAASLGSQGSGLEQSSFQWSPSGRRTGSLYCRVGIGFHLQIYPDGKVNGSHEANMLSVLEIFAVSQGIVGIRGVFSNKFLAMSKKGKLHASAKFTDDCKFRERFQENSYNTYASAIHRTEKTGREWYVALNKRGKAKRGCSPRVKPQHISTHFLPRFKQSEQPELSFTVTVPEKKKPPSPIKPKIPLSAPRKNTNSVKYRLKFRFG

Substance	IC50 [3]	IC50 [4]	other results
sBBI (wild-type soybean Bowman-Birk Inhibitor) (from UniProt P01055 40-110)	–	–	IC50 [1]: > 250 µM; IC50 [2]: > 250 µM
BBIt-VEGK (BBIt with the VEGF-binding peptide VegK KYYLYWW in the chymotrypsin loop) (designed binder)	–	2 to 10 µM	–
WTQ-BBIt-Q-TGF (BBIt-A13I-L29P-F50T-V52A with the TGFβ1 binding peptide WTQ WTQHIHN) (designed binder)	10 to 50 µM	–	–

Continued, in another order:

IC50 [3]	IC50 [4]	Substance	other results
10 to 50 µM	–	PEN3-Q-BBIt-TGF-A40L-F50N (BBIt-A40L-F50N with the TGFβ1 binding peptide PEN3 PENINVLP) (designed binder)	–
–	2 to 10 µM	BBIt with the VEGF-binding peptide VegKD (KYDLYWW) in the chymotrypsin loop (designed binder)	–
–	2 to 10 µM	BBIt-VEGT (BBIt with the VEGF-binding peptide VegT TLWKSYW in the chymotrypsin loop) (designed binder)	–
